Results reported in patent publication US20140072613A1 (published 2014).

Key:
Experiment in all cases: cell-based or functional assay
EphA7(h) = EphA7(h) (human, UniProt Q15375 577-998, limits assumed)
eEF-2K(h) = target: T1, eEF-2K(h) (human, UniProt O00418 1-725, limits assumed)
T1 sequence (looked up): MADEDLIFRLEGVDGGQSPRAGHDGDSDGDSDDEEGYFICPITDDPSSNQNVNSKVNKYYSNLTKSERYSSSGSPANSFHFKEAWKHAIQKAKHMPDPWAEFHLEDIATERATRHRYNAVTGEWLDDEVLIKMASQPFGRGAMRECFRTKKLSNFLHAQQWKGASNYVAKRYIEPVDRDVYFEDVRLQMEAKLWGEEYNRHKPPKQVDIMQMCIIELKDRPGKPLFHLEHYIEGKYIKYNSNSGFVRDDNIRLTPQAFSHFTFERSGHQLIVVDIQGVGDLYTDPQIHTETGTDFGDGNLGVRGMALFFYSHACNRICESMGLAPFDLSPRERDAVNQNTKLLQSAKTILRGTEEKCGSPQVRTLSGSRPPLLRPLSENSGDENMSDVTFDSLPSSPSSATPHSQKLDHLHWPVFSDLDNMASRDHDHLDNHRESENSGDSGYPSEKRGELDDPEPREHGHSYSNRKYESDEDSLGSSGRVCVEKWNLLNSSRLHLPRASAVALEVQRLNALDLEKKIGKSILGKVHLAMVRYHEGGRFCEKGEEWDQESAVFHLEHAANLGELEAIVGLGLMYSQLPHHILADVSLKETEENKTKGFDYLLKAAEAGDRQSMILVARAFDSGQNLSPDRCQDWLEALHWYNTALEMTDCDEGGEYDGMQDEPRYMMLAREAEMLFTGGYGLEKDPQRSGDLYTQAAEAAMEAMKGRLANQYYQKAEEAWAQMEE

PDK1(h) = target: T2, PDK1(h) (human, UniProt O15530 1-556, limits assumed)
T2 sequence (looked up): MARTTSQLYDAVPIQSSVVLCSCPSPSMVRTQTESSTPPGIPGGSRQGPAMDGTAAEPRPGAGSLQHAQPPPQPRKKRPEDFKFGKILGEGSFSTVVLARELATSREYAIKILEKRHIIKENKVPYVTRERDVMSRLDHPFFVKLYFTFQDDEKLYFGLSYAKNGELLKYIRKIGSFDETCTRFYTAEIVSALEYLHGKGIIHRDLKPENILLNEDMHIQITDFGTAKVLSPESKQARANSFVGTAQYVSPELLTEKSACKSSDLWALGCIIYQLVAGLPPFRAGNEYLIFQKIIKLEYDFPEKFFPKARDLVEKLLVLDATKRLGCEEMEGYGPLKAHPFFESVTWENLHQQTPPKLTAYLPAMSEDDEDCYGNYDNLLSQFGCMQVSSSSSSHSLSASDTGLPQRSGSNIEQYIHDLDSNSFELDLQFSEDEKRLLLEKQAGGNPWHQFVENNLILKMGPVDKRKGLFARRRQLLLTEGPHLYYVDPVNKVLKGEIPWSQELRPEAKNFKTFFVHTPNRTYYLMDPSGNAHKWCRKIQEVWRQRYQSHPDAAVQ

Tec(h)activated = target: T3, Tec(h)activated (human, UniProt P42680 1-631, limits assumed)
T3 sequence (looked up): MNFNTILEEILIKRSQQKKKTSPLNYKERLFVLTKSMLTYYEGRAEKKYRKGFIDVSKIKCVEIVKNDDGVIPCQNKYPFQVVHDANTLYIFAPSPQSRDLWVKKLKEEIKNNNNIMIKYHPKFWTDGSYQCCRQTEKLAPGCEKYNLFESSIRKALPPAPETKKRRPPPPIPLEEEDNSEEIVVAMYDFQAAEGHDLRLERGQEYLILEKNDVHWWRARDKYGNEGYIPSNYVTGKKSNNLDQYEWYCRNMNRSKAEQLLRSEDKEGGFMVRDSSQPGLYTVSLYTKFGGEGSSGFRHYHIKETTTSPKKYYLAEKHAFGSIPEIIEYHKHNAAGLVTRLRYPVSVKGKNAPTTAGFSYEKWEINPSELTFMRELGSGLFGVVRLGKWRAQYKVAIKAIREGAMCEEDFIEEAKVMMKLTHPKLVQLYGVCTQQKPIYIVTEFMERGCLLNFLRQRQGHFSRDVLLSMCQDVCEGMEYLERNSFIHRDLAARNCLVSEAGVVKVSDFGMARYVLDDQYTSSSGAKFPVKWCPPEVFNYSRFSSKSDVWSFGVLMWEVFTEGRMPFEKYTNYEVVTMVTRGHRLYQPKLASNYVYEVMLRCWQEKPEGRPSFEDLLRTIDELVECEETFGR

Axl(h) = target: T4, Axl(h) (human, UniProt P30530 473-894, limits assumed)
T4 sequence (looked up): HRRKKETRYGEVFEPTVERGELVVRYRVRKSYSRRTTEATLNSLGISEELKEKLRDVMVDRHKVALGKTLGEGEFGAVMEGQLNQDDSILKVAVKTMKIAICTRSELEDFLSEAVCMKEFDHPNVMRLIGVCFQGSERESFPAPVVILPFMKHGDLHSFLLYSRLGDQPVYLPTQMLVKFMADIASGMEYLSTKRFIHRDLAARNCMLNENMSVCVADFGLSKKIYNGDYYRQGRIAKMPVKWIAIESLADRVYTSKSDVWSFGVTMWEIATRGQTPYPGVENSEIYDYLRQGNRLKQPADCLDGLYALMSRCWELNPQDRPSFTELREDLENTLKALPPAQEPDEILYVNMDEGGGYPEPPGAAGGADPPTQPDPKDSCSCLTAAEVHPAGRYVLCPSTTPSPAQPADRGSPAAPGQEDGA

EphB2(h) = target: T5, EphB2(h) (human, UniProt P29323 565-986, limits assumed)
T5 sequence (looked up): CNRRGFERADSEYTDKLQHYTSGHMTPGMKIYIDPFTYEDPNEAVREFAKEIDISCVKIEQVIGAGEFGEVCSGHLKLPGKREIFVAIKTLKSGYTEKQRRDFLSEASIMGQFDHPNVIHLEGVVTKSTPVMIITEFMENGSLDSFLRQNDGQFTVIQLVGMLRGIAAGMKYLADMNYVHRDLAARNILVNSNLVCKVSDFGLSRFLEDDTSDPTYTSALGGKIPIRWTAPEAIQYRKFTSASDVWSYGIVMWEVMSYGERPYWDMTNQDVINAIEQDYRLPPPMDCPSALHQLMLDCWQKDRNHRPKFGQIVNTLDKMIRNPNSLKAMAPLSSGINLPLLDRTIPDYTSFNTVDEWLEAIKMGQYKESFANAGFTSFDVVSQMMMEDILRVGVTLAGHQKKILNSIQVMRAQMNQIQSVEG

IRAK1(h) = IRAK1(h) (human, UniProt P51617 194-712, limits assumed)
Chain of IRAK1(h) (P51617 194-712 limits assumed): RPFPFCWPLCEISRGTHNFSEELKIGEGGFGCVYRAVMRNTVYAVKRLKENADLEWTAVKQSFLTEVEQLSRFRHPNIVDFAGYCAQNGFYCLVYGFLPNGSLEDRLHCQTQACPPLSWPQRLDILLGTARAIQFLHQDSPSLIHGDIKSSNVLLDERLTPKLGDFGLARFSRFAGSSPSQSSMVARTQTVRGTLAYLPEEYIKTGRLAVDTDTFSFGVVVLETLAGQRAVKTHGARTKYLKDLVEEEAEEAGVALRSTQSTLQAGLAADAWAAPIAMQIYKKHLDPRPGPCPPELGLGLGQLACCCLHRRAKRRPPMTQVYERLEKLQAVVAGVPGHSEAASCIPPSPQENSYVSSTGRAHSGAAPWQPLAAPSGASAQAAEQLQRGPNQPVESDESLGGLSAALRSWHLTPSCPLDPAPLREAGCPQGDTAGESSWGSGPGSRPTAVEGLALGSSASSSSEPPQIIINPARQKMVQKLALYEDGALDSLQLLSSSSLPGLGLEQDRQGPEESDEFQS

Chain of EphA7(h) (Q15375 577-998 limits assumed): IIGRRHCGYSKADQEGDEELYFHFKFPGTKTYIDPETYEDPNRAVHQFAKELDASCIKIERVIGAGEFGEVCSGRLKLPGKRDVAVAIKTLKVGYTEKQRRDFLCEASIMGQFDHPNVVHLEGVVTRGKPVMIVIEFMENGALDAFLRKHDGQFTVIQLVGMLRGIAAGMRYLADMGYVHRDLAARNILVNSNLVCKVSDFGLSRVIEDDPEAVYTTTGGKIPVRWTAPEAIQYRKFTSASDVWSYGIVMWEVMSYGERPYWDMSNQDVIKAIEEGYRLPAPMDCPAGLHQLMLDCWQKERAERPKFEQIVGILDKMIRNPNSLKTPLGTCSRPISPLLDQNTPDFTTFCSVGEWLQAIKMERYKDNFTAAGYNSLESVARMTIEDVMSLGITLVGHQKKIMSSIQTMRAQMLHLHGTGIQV

Binder	% activity, 100 µM (EphA7(h)) [%]	% activity, 100 µM (eEF-2K(h)) [%]	% activity, 100 µM (PDK1(h)) [%]	% activity, 100 µM (Tec(h)activated) [%]	% activity, 100 µM (Axl(h)) [%]	% activity, 100 µM (EphB2(h)) [%]	% activity, 100 µM (IRAK1(h)) [%]
KAFAKLAARLYRKALARQLGVAA [MMI-0400]	222	43	159	29	41	22	93
FAKLAARLYRKALARQLGVAA [MMI-0300]	159	91	135	56	52	18	95
